Among the data in US20230357405A1 (published 2023) are kon and EC50 values, retold here.

In assay [1] the target is T1, Strep tagged recombinant human PD-1 (human, UniProt Q15116 25-167, limits assumed).
T1 construct: also called Strep tagged human PD-1; not shown: Strep tag
The experiment in a line: SPR Biacore T200, single cycle kinetics; Strep tagged PD-1 amine coupled to CM-5 (14 RU). Here is the method:
Single cycle kinetics assays were used to study the interaction between human PD-1 with Humabody® on a Biacore T200 instrument (GE Healthcare). Strep tagged recombinant human PD-1 was amine coupled to one flow cell of a CM-5 chip to create a low density surface (14 RU) using standard Biacore reagents. For the reference flow cell, a blank immobilisation was carried out. A five-point, three-fold dilution series of each Humabody® was made with a top concentration of 25 nM. The binding kinetics were followed by flowing the Humabody® over the chip surface in HBS EP+ buffer at a flow rate of 30 μl/min. The contact time for each of the association steps was 180 seconds and the dissociation step was 3300 seconds. The data was fitted to a 1:1 binding model after double reference subtraction using the Biacore T200 Evaluation software.

Assay [2] deals with T2, cynomolgus PD-1 recombinant protein (cynomolgus).
T2 construct: also called cyno PD-1; cynomolgus PD-1 (Acro Biosystems cat no. PD-1-05254)
Nature of the assay: HTRF binding assay; 2 nM PD-1, anti human-Fc cryptate and anti His-D2. As to the method: Purified VH were tested for their ability to bind to human PD-1 (R&D Systems cat no. 1086-PD), cynomolgus PD-1 (Acro Biosystems cat no. PD-1-05254) and mouse PD-1 (R&D Systems cat no. 1021-PD) in an HTRF Binding assay format. All reagents and serially diluted VH were prepared in assay buffer containing PBS, 0.1% BSA and 0.4M Potassium Fluoride. Samples or assay buffer (non-specific binding) were incubated with 2 nM human/cynomolgus or mouse PD-1, 1 nM Anti human-Fc Cryptate PAb (Cisbio cat. no. 61HFCKLB) and 30 nM anti His-D2 (CisBio cat no 61HISDLA) in black 384-shallow well assay plates for a minimum of 3 hours at room temperature. Time-resolved fluorescent emission at 620 nm and 665 nm was measured following excitation at 337 nm on the BMG PHERAstar plate reader. The HTRF ratio were calculated ((665 nm emission/620 nm emission)*10000) and the data corrected for (non-specific binding) to give the specific binding signal.
A general note: TR-FRET usually uses a lanthanide donor and a delayed reading to cut background.

T1 sequence (Q15116 25-167 limits assumed): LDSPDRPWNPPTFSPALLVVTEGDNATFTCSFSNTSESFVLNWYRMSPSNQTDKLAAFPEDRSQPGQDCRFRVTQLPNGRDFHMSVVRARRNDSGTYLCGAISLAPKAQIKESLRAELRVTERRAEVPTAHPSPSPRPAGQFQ

B1: Humabody® 1.80 (VHH)
VHH: EVQLVESGGGLVKPGGSLRLSCAASGFTFSDSSMTWMRQAPGKGLEWVSYISSGGGVKFYADSVKGRFTISRDNAKNSLYLQMNSLRAEDTAVYYCAREAPLRLGESPHDAFDISGQGTMVTVSS
notes: human VH single domain antibody
For the molecule B1, the kon in assay [1] is 176000 M⁻¹ s⁻¹.

B2: Humabody® 1.1 (VHH)
VHH: QVQLVESGGGLVKPGGSLRLSCAASGFTFSDYTMTWMRQAPGKGLEWVSYISTGGTIKYYTDSVKGRFTISRDNAKNSLYLQMNSLRADDTAVYYCAREAPLRLGESPHDAFDIWGQGTMVTVSS
notes: human VH single domain antibody; also called clone 1.1
For B2, the EC50 in assay [2] turned out to be 6.3 nM.

B3: Humabody® 1.92 (VHH)
VHH: EVQLVESGGGLVKPGGSLRLSCAASGFTFSDESMTWMRQAPGKGLEWVSYISSGGGVKFYADSVKGRFTISRDNAKNSLYLQMNSLRAEDTAVYYCAREAPLRLGESPHDAFDISGQGTMVTVSS
notes: as for B1
For the molecule B3, the EC50 in assay [2] was 4.1 nM.

B4: Humabody® 1.57 (VHH)
VHH: QVQLVESGGGLVKPGGSLRLSCAASGFTFSDNSMTWMRQAPGKGLEWVSYISSGGGVIFYADSVKGRFTISRDNAKNSLYLQMNSLRADDTAVYYCAREAPLRLGESPHDAFDISGQGTMVTVSS
notes: as for B1
Regarding B4, the EC50 in assay [2] turned out to be 0.75 nM.

The kon is a measure of how fast the partners come together. One may read the EC50 as the midpoint of the concentration-response curve.
